Among the data in patent publication US20050038611 are binding signal (fold decrease in affinity vs wild type) and Kd values, retold here.

pKd: −log10 of the molar value.

This series has as its target T1, ribosomal protein S8 (Staphylococcus aureus) (UniProt A6U3W1).
T1 sequence: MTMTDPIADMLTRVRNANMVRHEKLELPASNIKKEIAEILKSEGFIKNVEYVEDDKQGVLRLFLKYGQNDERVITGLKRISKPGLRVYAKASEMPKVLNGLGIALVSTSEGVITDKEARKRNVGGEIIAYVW
The series can be described thus: filter. To be noted: 80 mM HEPES-KOH pH 7.6, 350 mM KOAc, 20 mM MgOAc, on ice.

Turning to S. aureus Helix 21 A604-U652 to G-C, the binding signal (fold decrease in affinity vs wild type) (apparent Kd in Table 5 not given) amounted to 10.
As a reminder, the pKd is the negative decadic logarithm of the Kd, by convention in mol/L. A high value points to a small Kd. For “S. aureus Helix 21 rRNA wild type (nts 596-659 of 16S rRNA)”, the pKd was 6.40.
